From publication PMC9933118 (Proceedings of the National Academy of Sciences of the …, 2023)

Tests used:
GST-ZF456 = GST-ZF456 (Homo sapiens, UniProt Q9H165); assay: pull-down
[1] = biological target: BCL11A ZF456 (residues 737 to 835) (Homo sapiens, UniProt Q9H165, 15N-labelled in the NMR experiment)
Twin-Strep-tagged ZF456 = Twin-Strep-tagged ZF456 (Homo sapiens, UniProt Q9H165); assay: SPR
[2] = biological target: biotinylated ZF456 protein (BCL11A) (Homo sapiens, UniProt Q9H165, biotin (site not stated)); assay: AlphaScreen or HTRF
ZF456 of BCL11B = ZF456 of BCL11B (Homo sapiens (assumed, as for BCL11A), UniProt Q9C0K0); assay: AlphaScreen or HTRF
Chain of ZF456 of BCL11B (Q9C0K0 whole entry, looked up, tested part not stated): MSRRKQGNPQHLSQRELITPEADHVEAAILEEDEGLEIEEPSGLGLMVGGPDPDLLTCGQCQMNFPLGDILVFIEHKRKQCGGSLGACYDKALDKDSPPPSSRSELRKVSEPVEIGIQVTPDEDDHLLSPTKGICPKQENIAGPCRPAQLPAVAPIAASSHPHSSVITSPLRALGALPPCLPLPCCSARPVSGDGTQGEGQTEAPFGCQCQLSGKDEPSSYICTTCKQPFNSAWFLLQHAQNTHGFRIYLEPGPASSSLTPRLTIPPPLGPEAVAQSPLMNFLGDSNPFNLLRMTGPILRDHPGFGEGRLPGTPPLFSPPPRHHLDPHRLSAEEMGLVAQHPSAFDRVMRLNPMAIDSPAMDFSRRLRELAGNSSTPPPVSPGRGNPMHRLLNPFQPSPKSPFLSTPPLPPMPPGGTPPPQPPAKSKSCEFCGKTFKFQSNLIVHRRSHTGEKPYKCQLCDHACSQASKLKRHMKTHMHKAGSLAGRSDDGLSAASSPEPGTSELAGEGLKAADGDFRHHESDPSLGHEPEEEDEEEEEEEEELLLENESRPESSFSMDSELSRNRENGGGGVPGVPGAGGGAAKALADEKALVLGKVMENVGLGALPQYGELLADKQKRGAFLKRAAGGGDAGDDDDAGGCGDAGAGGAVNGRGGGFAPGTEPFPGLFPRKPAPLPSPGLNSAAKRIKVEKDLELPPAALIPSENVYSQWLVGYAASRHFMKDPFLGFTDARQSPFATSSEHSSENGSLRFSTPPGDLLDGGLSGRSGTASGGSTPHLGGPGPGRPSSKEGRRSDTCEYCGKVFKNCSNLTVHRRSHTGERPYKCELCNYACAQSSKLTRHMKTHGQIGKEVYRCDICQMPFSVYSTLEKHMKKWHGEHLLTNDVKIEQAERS

Chain of biotinylated ZF456 protein (BCL11A) (Q9H165 737-835): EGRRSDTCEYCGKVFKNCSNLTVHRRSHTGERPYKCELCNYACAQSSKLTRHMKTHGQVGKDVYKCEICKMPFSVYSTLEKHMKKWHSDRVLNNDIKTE
Chain of BCL11A ZF456 (residues 737 to 835) (Q9H165 737-835): as above
Chain of Twin-Strep-tagged ZF456 (Q9H165 737-835): as above
Chain of GST-ZF456 (Q9H165 737-835): as above

B1: Nb61 (VHH)
VHH: QVQLVESGGGLVQAGGSLRLSCAASGFIFDSYAMGWYRQAPGKERELVAAITSSGSSTYYADSVKGRFTISRDNAKNTVYLQMNSLKPEDTAVYYCAALDYVIDGYWGQGTQVTVSS
binding result (GST-ZF456): binds

B2: Nb5344 (VHH)
VHH: SGGGLVQAGDSLRLSCAASGSTFSGYAMGWYRQAPGKERELVAAITSSGASTYYADSVRGRFTISRDNAKNTVYLQMNSLKPEDTAVYYCAALDEGYLDYDSWGQGTQVTVSS
Kd [1]: 3420 ± 80 nM

B3: Nb5344(N74D) (VHH)
VHH: SGGGLVQAGDSLRLSCAASGSTFSGYAMGWYRQAPGKERELVAAITSSGASTYYADSVRGRFTISRDDAKNTVYLQMNSLKPEDTAVYYCAALDEGYLDYDSWGQGTQVTVSS
Kd [1]: 1200 ± 50 nM

B4: Nb6101(M45D) (VHH)
VHH: RVQLVESGGGLVQAGGSLRLSCAASGFIFDSYAMGWYRQAPGKEDELVAAITSSGSSTYYADSVKGRFTISRDNAKNTVYLQMNSLKPEDTAVYYCAALDYVIDGYWGQGTQVTVSS
Kd (Twin-Strep-tagged ZF456): 157 ± 9 nM
fold improvement of binding affinity against Nb6101 (Twin-Strep-tagged ZF456): ~6 fold

B5: Nb6101-14 (VHH)
VHH: RVQLVESGGGLVQAGGSLRLSCAADGFDFSSYAMGWYRQAPGYEDELVAAITASGSYTYYSDSVKGRFTISRDNAKNTVYLQMNSLKPEDTAVYYCAALSYVAEGYWGQGTQVTVSS
Kd [2]: 26.7 ± 0.7 nM

B6: Nb6101-19 (VHH)
VHH: RVQLVESGGGLVQAGGSLRLSCAADGFDFKSYAMGWYRQAPGREDELVAAITASGDYTYYADSVKGRFTISRDNAKNTVYLQMNSLKPDDTAVYYCAALSYVAEGYWGQGTQVTVSS
Kd [2]: 21.9 ± 0.4 nM

B7: Nb6101-20 (VHH)
VHH: RVQLVESGGGLVQAGGSLRLSCAADGFDFKSYAMGWYRQAPGYEDELVAAITASGSYTYYSDSVKGRFTISRDNAKNTVYLQMNSLKPEDTAVYYCAALSYVAEGYWGQGTQVTVSS
Kd [2]: 77.2 ± 0.5 nM

B8: Nb6101-22 (VHH)
VHH: RMQLVESGGGLVQAGGSLRLSCAADGFDFSSYAMGWYRQAPGREDELVAAITASGSYTYYSDSVKGRFTISRDNAKNTVYLQMNSLKPDDTAVYYCAALSYVAEGYWGQGTQVTVSS
Kd [2]: 54.6 ± 0.9 nM

B9: Nb6101 (VHH)
VHH: RVQLVESGGGLVQAGGSLRLSCAASGFIFDSYAMGWYRQAPGKEMELVAAITSSGSSTYYADSVKGRFTISRDNAKNTVYLQMNSLKPEDTAVYYCAALDYVIDGYWGQGTQVTVSS
binding result (ZF456 of BCL11B): no binding
